# In patent publication US20260070961A1 (Takeda / Millennium, published 2026):
# B1: DENV3-8D4 (antibody, V domains shown)
# VH: QEQLEESGGGLVKPGGTLTLTCTASGFSFSNVYYICWVRQAPGKGLEWIGCIGTGDGNTWYASWAKGRFTISKASSTTVILQVTSLTAADTATYFCARDIYSYDNTGVYTVPKLWGPGTLVTVSS
# VL: AAVLTQTPSPVSAAVGGTVSISCQSSESVYSNNRLAWYQQKPGQPPKLLIYRASTLESGVPSRFKGSGSGTEFTLTISDVRCDDAATYYCAGGYSGSSDKGFGGGTEVVVK
# B2: DENV3-12H6 (antibody, V domains shown)
# VH: QEQLEESGGDLVKPEGSLTLTCKASGIDFSSSYWICWVRQAPGKGLEWIGCIYTGSSTTWYAAWAKGRFTISKPSSTTVTLQMTSLTAADTATYFCARFYDVGVYFNLWGPGTLVTVSS
# VL: AIVMTQTPSSKSVPVGDTVTINCQASESISSWLAWYQQKPGQPPKLLIYLASTLASGVPSRFKGSGSGTQFTLTISDVVCDDAATYYCAGYKSSVTDGFAFGGGTEVVVK
# B3: DENV3-5D7 (antibody, V domains shown)
# VH: QSLEESGGDLVKPGASLTLTCTASGFSFSSGYDMCWVRQAPGKGLEWIACIYITDTGSSYYATWARGRFTISKTSSTSVTLQVTSLTAADTATYFCAKTNYGSGGFAFNLWGPGTLVTVSS
# VL: DVVMTQTPASVEARVGGTVTINCQASQSISNLLAWYQQKPGQPPKLLIYRASALESGVPSRFRGSGSGTEFTLTISDLECADAATYYCQCTYGGSSITNWAFGGGTEVVVK
# notes: also called clone 5D7
# Biological target: T1, DENV3 Domain III protein (Dengue virus serotype 3)
# T1 construct: domain: Domain III; also called TDV3 Domain III
# Assay: BLI (Octet HTX), mAb coupled to AR2G biosensor, 20 ug/mL Domain III protein, response at 1200 sec
row,Binder,Response (nm)
1,B1,0.248
2,B2,0.0148
3,B3,0.0178

# Biological target: T2, DENV-3 VLP (Dengue virus serotype 3)
# T2 construct: also called dengue 3 VLP; DENV-VLP
# Assay: Luminex assay, VLP-conjugated MagPlex beads
row,Binder,EC50 [mg/L]
1,B1,0.115
2,B2,0.11
3,B3,0.025

# Biological target: T2, DENV-3 VLP
# Assay: BLI (Octet-HTX), IgG from supernatant captured on Protein A biosensor, 5 ug/mL DENV-VLP, 1:1 model
row,Binder,koff [s⁻¹]
1,B1,< 2e-05
2,B2,< 2e-05
3,B3,< 2e-05

# Biological target: T2, DENV-3 VLP
# Assay: BLI (Octet-HTX), IgG from supernatant captured on Protein A biosensor, 5 ug/mL DENV-VLP
row,Binder,response
1,B1,1.51
2,B2,1.39
3,B3,0.984
